{"source": "paper PMC3531522", "about": "“Nasal Colonisation by Staphylococcus aureus Depends upon Clumping Factor B Binding to the Squamous Epithelial Cell Envelope Protein Loricrin” (PLoS Pathogens, 2012)", "molecules": {"B1": {"name": "Recombinant ClfB N2N3 (rClfB_(201–542)) (domain or fragment)", "chain": "AEPVVNAADAKGTNVNDKVTASNFKLEKTTFDPNQSGNTFMAANFTVTDKVKSGDYFTAKLPDSLTGNGDVDYSNSNNTMPIADIKSTNGDVVAKATYDILTKTYTFVFTDYVNNKENINGQFSLPLFTDRAKAPKSGTYDANINIADEMFNNKITYNYSSPIAGIDKPNGANISSQIIGVDTASGQNTYKQTVFVNPKQRVLGNTWVYIKGYQDKIEESSGKVSATDTKLRIFEVNDTSKLSDSYYADPNDSNLKEVTDQFKNRIYYEHPNVASIKFGDITKTYVVLVEGHYDNTGKNLKTQVIQENVDPVTNRDYSIFGWNNENVVRYGGGSADGDSAVN", "notes": "Clumping factor B (ClfB) of S. aureus, amino acids 201-542 (subdomains N2 and N3 of the A domain), amplified from plasmid pCU1:clfB; also called ClfB N2N3_(201–542); ClfB N23_(201–542); not shown: His6, N-terminal, kept"}, "B2": {"name": "GST-human loricrin_(1–315) (natural protein, UniProt P23490 1-312, looked up)", "chain": "MSYQKKQPTPQPPVDCVKTSGGGGGGGGSGGGGCGFFGGGGSGGGSSGSGCGYSGGGGYSGGGCGGGSSGGGGGGGIGGCGGGSGGSVKYSGGGGSSGGGSGCFSSGGGGSGCFSSGGGGSSGGGSGCFSSGGGGSSGGGSGCFSSGGGGFSGQAVQCQSYGGVSSGGSSGGGSGCFSSGGGGGSVCGYSGGGSGCGGGSSGGSGSGYVSSQQVTQTSCAPQPSYGGGSSGGGGSGGSGCFSSGGGGGSSGCGGGSSGIGSGCIISGGGSVCGGGSSGGGGGGSSVGGSGSGKGVPICHQTQQKQAPTWPSK", "notes": "Loricrin, human, full length, printed as residues 1-315 (S1 to K315); also called HLor; Hlor; source: DNA codon optimised for E. coli, in pGEX-4T; purified on GSTrap FF; not shown: GST, N-terminal, kept"}, "B3": {"name": "GST-human K10_(544–563) (peptide)", "chain": "GGSSGGGSSSGGGYGGGSSS", "notes": "Cytokeratin 10 (K10), human, residues 544-563 (C-terminal tail region); also called HK10; GST-HK10; source: DNA codon optimised for E. coli, in pGEX-4T; purified on GSTrap FF; not shown: GST, N-terminal, kept"}, "B4": {"name": "GST-murine K10_(454–570) (domain or fragment, UniProt P02535 454-570, looked up)", "chain": "EGSSSGGGGGRRGGSGGGSYGGSSGGGSYGGSSGGGGSYGGSSGGGGSYGGGSSGGGSHGGSSGGGYGGGSSSGGAGGHGGSSGGGYGGGSSSGGQGGSGGFKSSGGGDQSSKGPRY", "notes": "Cytokeratin 10 (K10), murine, residues 454-570 (C-terminal tail region); also called MK10; GST-MK10; source: DNA codon optimised for E. coli, in pGEX-4T; purified on GSTrap FF; not shown: GST, N-terminal, kept"}, "B5": {"name": "GST-Fgα_(316–367) (domain or fragment, UniProt P02671 335-386, looked up)", "chain": "NSGSSGTGSTGNQNPGSPRPGSTGTWNPGSSERGSAGHWTSESSVSGSTGQW", "notes": "Fibrinogen α-chain, residues 316-367, repeat domain 5 of the αC region; also called repeat domain 5 of the αC region of Fg"}}, "assay_in_all_cases": "SPR; BIAcore X100; GST-tagged ligand captured on a CM5 chip coated with goat anti-GST IgG, GST on the reference cell; increasing concentrations of rClfB_(201–542) in PBS passed in succession without regeneration (single cycle); KD from response at equilibrium against concentration", "key": {"[1]": {"biological_target": "GST-tagged human loricrin loop region 1A (human)"}, "[2]": {"biological_target": "GST-tagged human loricrin loop region 1B (human)"}, "[3]": {"biological_target": "GST-tagged human loricrin loop region 2 (human)"}, "[4]": {"biological_target": "GST-tagged human loricrin loop region 2v (human)"}, "[5]": {"biological_target": "GST-tagged human loricrin loop region 3 (human)"}, "[6]": {"biological_target": "T1, GST-murine loricrin_(1–480) (murine, UniProt P18165 1-486)", "T1 construct": "Loricrin, murine, full length, printed as residues 1-480; The printed length (480) may differ from that of the UniProt entry; also called MLor; GST-MLor; source: DNA codon optimised for E. coli, in pGEX-4T; purified on GSTrap FF; not shown: GST, N-terminal, kept", "T1 sequence (looked up)": "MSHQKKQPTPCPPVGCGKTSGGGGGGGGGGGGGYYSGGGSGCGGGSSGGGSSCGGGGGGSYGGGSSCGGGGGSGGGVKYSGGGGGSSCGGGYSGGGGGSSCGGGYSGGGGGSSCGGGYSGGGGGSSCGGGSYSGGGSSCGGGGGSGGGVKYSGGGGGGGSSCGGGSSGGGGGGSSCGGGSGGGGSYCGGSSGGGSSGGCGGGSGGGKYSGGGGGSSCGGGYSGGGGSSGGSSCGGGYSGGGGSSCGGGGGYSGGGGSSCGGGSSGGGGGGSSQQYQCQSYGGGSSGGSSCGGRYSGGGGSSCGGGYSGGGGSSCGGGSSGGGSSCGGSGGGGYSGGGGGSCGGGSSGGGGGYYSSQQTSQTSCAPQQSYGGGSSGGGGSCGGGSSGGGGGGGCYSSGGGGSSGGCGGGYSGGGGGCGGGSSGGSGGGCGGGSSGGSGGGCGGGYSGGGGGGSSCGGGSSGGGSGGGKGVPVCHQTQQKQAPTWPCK", "conditions": "both partners purified"}, "[7]": {"biological_target": "B1", "conditions": "both partners purified"}, "[8]": {"biological_target": "B1", "conditions": "both partners purified", "remark": "listed apart in the source"}}, "data": [{"molecule": "Recombinant ClfB N2N3 (rClfB_(201–542)) (from UniProt O86476 201-542) (domain or fragment)", "values": [{"measurement": "Kd", "setting": "[1]", "value": 16.7, "unit": "µM"}, {"measurement": "Kd", "setting": "[2]", "value": 34.5, "unit": "µM"}, {"measurement": "Kd", "setting": "[3]", "value": 3.31, "unit": "µM"}, {"measurement": "Kd", "setting": "[4]", "value": 2.21, "unit": "µM"}, {"measurement": "Kd", "setting": "[5]", "value": 5.47, "unit": "µM"}]}, {"molecule": "B1", "values": [{"measurement": "Kd", "setting": "[6]", "value": 15.7, "unit": "µM"}]}, {"molecule": "B2", "values": [{"measurement": "Kd", "setting": "[7]", "value": 4.33, "unit": "µM"}]}, {"molecule": "B3", "values": [{"measurement": "Kd", "setting": "[7]", "value": 7.89, "unit": "µM"}]}, {"molecule": "B4", "values": [{"measurement": "Kd", "setting": "[7]", "value": 14.4, "unit": "µM"}]}, {"molecule": "B5", "values": [{"measurement": "Kd", "setting": "[8]", "value": "5.52 ± 1.5", "unit": "µM"}, {"measurement": "Kd", "setting": "[7]", "value": 5.25, "unit": "µM"}]}]}
